Values quoted from earlier work, collected in article PMC7484323 (Molecular pharmaceutics, 2020).

Tested on: B16/F1 melanoma
Details: 2 h post-injection

Q: Which results are given for “hydrazinonicotinamide (HYNIC)-GGNle-CycMSHhex (sidechain bridge or staple) [99mTc(EDDA)-HYNIC-GGNle-CycMSHhex]”?
A: kidney (renal) uptake: 7.52 ± 0.96 %ID/g; liver uptake: 0.52 ± 0.05 %ID/g; tumor uptake (B16/F1 melanoma): 14.14 ± 4.90 %ID/g
